Results from EP4349858A1 (CentricsBio, Inc., dated 2024).

T1: mouse CD300c antigen (mouse)
T1 sequence (A2A7V7 whole entry, looked up): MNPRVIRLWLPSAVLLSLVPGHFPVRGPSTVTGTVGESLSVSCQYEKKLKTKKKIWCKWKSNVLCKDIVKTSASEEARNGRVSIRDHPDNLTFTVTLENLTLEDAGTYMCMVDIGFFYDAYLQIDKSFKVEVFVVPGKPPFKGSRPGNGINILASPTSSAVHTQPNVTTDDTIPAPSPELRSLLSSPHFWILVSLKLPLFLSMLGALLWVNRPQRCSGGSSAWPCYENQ

T2: CD300c antigen (11832-H08H, Sino Biological) (UniProt Q08708 21-183)
T2 construct: Bought recombinant antigen coated on ELISA plates; the same entry is used for it
T2 sequence (looked up): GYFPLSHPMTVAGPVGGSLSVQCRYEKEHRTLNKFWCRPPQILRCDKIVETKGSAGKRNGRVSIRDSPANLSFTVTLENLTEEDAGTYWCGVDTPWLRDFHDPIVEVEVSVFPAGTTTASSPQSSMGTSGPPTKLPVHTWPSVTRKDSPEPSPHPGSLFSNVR

T3: CD300a antigen (12449-H08H, Sino Biological) (UniProt Q9UGN4 18-180)
T3 construct: Bought recombinant antigen
T3 sequence (looked up): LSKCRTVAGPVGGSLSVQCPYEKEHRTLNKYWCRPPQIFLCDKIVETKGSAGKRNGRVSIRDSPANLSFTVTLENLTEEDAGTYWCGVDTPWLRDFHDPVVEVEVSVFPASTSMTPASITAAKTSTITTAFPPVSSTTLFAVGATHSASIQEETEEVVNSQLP


Columns and labels:
[1] = biological target: T1, mouse CD300c antigen; test: cell-based or functional assay
[2] = biological target: T2, CD300c antigen (11832-H08H, Sino …); test: binding ELISA, CD300c antigen coated
[3] = biological target: T3, CD300a antigen (12449-H08H, Sino …); test: binding ELISA, antigen coated on plate

Binder	cancer cell proliferation inhibitory effect, CT26 mouse colorectal cancer cell line, CCK-8, 10 ug/mL antibody, 5 days [1]	EC50 [2]	binding result [3]
anti-CD300c monoclonal antibody CL7 (antibody, V domains shown, expressed as heavy and light chains in 293T cells, protein A purified) VH: EVQLLESGGGLVQPGGSLRLSCAASGFTFSRYAMSWVRQAPGKGLEWVSAISGSGGSTYYADSVKGRFTISRDNSKNTLYLQMNSLRAEDTAVYYCARSSQGIFDIWGQGTLVTVSS VL: QSVLTQPPSASGTPGQRVTISCSGNNIGTRRVHWYQQLPDTAPKLLIYSKNNRPSGVPDRFSGSKSGTSASLAISGLRSEDEADYYCAAWDDSLSGPVFGGGTKLTVL	66%	≤ 0.2 µg/mL	no binding
anti-CD300c monoclonal antibody CL10 (antibody, V domains shown, expressed as heavy and light chains in 293T cells, protein A purified) VH: EVQLLESGGGLVQPGGSLRLSCAASGFTFSSYGMHWVRQAPGKGLEWVSAISGSGGSTYYADSVKGRFTISRDNSKNTLYLQMNSLRAEDTAVYYCASGYGLMDVWGQGTLVTVSS VL: QSVLTQPPSASGTPGQRVTISCTRSSGIIASNYVQWYQQLPGTAPKLLIYRNNQRPSGVPDRFSGSKSGTSASLAISGLRSEDEADYYCSSYAGNNNLVFGGGTKLTVL	15%	≤ 0.2 µg/mL	
anti-CD300c monoclonal antibody SL18 (antibody, V domains shown, expressed as heavy and light chains in 293T cells, protein A purified) VH: RVQLLESGGGLVQPGGSLRLSCAASGFTFSDYHMHWVRQAPGKGLEWVSTISSSGGYTYYAESVKSRFTISRDNSKNTLYLQMNSLRAEDTAVYYCARSIRLPLDYWGQGTLVTVSS VL: QSVLTQPPSASGTPGQRVTISCSGNNIGSKGVHWYQQLPGTAPKLLIYEDSKRPSGVRDRFSGSKSGTSASLAISGLRSEDEADYYCQSYDSTKGVVFGGGTKLTVL	38%	≤ 0.2 µg/mL	
anti-CD300c monoclonal antibody CK1 (antibody, V domains shown, Selected as scFv phage clone (kappa library); expressed from separate heavy and light chain vectors in 293T cells, purified on protein A) VH: EVQLLESGGGLVQPGGSLRLSCAASGFTFSRYAMTWVRQAPGKGLEWVSSMSGTGGTTYYADSVKGRFTISRDNSKNTLYLQMNSLRAEDTAVYYCARGAYGFDHWGQGTLVTVSS VL: EIVLTQSPGTLSLSPGERATLSCRASQSIGNYLNWYQQKPGQAPRLLIYDASNLETGIPDRFSGSGSGTDFTLTISRLEPEDFAVYYCQQSSAIPYTFGQGTKVEIK		≤ 0.2 µg/mL	
anti-CD300c monoclonal antibody CK2 (antibody, V domains shown, expressed as heavy and light chains in 293T cells, protein A purified) VH: EVQLLESGGGLVQPGGSLRLSCAASGFTFSSYGMHWVRQAPGKGLEWVSAISGSGTSIYYADSVKGRFTISRDNSKNTLYLQMNSLRAEDTAVYYCARGGTAFDYWGQGTLVTVSS VL: EIVLTQSPGTLSLSPGERATLSCRASQRSDNYLAWYQQKPGQAPRLLIYDASNRATGIPDRFSGSGSGTDFTLTISRLEPEDFAVYYCQQSYSTPFTFGQGTKVETK		≤ 0.2 µg/mL	
anti-CD300c monoclonal antibody CL4 (antibody, V domains shown, expressed as heavy and light chains in 293T cells, protein A purified) VH: RVQLLESGGGLVQPGGSLRLSCAASGFTFGSNYMSWVRQAPGKGLEWVSTISGSGTSTYYADSLKGRFTISRDNSKNTLYLQMNSLRAEDTAVYYCARGMWGMDVWGQGTLVTVSS VL: QSVLTQPPSASGTPGQRVTISCTGKHRHTVNWYQLLPGTAPKLLIYLDSERPSGVPDRFSGSKSGTSASLAISGLRSEDEADYYCQSYDSSSVVFGGGTKLTVL		≤ 0.2 µg/mL	
anti-CD300c monoclonal antibody CL5 (antibody, V domains shown, expressed as heavy and light chains in 293T cells, protein A purified) VH: RVQLLESGGGLVQPGGSLRLSCAASGFTFSSYAMHWVRQAPGKGLEWVSSISGGGYGTYYADSVKGRFTISRDNSKNTLYLQMNSLRAEDTAVYYCARSTVWAFDIWGQGTLVTVSS VL: QSVLTQPPSASGTPGQRVTISCSGNNIGSKSVHWYQQLPGTAPKLLIYDVSKRPSERPDRFSGSKSGTSASLAISDLRSEDEADYYCQSFDSSGTWIFGGGTKLTVL		≤ 0.2 µg/mL	
anti-CD300c monoclonal antibody CL6 (antibody, V domains shown, expressed as heavy and light chains in 293T cells, protein A purified) VH: EVQLLESGGGLVQPGGSLRLSCAASGFTFSSYGMHWVRQAPGKGLEWVSAISGSGGSTYYADSVKGRFTISRDNSKNTLYLQMNSLRAEDTAVYYCAVSGAGRGFFDYWGQGTLVTVSS VL: QSVLTQPPSASGTPGQRVTISCSGSSSNIGSNYVYWYQQLPGTAPKLLIYEDNKRPSGVPDRFSGSKSGTSASLAISGLRSEDEADYYCSSYTSSSTVIFGGGTKLTVL		≤ 0.2 µg/mL	
anti-CD300c monoclonal antibody CL9 (antibody, V domains shown, expressed as heavy and light chains in 293T cells, protein A purified) VH: EVQLLESGGGLVQPGGSLRLSCAASGFTFSSYYWSWVRQAPGKGLEWVSAISGSGGSTYYADSVKGRFTISRDNSKNTLYLQMNSLRAEDTAVYYCARIDVYGFDIWGQGTLVTVSS VL: QSVLTQPPSASGTPGQRVTISCSGSTSNIGTNYVYWYQQLPGTAPKLLIYDNNNRPSGVPDRFSGSKSGTSASLAISGLRSEDEADYYCQTWDSSTDVVFGGGTKLTVL		≤ 0.2 µg/mL	
anti-CD300c monoclonal antibody SK11 (antibody, V domains shown, expressed as heavy and light chains in 293T cells, protein A purified) VH: RVQLLESGGGLVQPGGSLRLSCAASGFTFSTYGMHWVRQAPGKGLEWVSAISGSGGSTYYADSVKGRFTISRDNSKNTLYLQMNSLRAEDTAVYYCARGLSGLDYWGQGTLVTVSS VL: EIVLTQSPGTLSLSPGERATLSCRSSQGITNYLAWYQQKPGQAPRLLIYDASNRATGIPDRFSGSGSGTDFTLTISRLEPEDFAVYYCQQSYSTPLTFGQGTKVEIK		≤ 0.2 µg/mL	
anti-CD300c monoclonal antibody SK12 (antibody, V domains shown, expressed as heavy and light chains in 293T cells, protein A purified) VH: RVQLLESGGGLVQPGGSLRLSCAASGFTFSSYAMHWVRQAPGKGLEWVSAISGSGGDTYHADSVKGRFTISRDNSKNTLYLQMNSLRAEDTAVYYCTRGLSGFDYWGQGTLVTVSS VL: EIVLTQSPGTLSLSPGERATLSCRASQSISSYLNWYQQKPGQAPRLLIYDASNRAPGIPDRFSGSGSGTDFTLTISRLEPEDFAVYYCQQSYSIPITFGQGTKVEIKF		≤ 0.2 µg/mL	
anti-CD300c monoclonal antibody SK13 (antibody, V domains shown, expressed as heavy and light chains in 293T cells, protein A purified) VH: RVQLLESGGGLVQPGGSLRLSCAASGFTFSDYAMSWVRQAPGKGLEWVSSISSSSSYIYYTDSVKGRFTISRDNSKNTLYLQMNSLRAEDTAVYYCARGGYGFDYWGQGTLVTVSS VL: EIVLTQSPGTLSLSPGERATLSCRASQSISSYLNWYQQKPGQAPRLLIYSASSRPQGIPDRFSGSGSGTDFTLTISRLEPEDFAVYYCQQYDDLPFTFGQGTKVEIK		≤ 0.2 µg/mL	
anti-CD300c monoclonal antibody SK14 (antibody, V domains shown, expressed as heavy and light chains in 293T cells, protein A purified) VH: EVQLLESGGGLVQPGGSLRLSCAASGFTFSNFAIAWVRQAPGKGLEWVSAISGRGTSTYYADSVKGRFTISRDNSKNTLYLQMNSLRAEDTAVYYCARGVSGFDSWGQGTLVTVSS VL: EIVLTQSPGTLSLSPGERATLSCRASQSISSHLAWYQQKPGQAPRLLIYDTSNRATGIPDRFSGSGSGTDFTLTISRLEPEDFAVYYCQQSYSTPFTFGQGTKVEIK		≤ 0.2 µg/mL	
anti-CD300c monoclonal antibody SK17 (antibody, V domains shown, expressed as heavy and light chains in 293T cells, protein A purified) VH: EVQLLESGGGLVQPGGSLRLSCAASGFTFSSYYWSWVRQAPGKGLEWVSTITGSGGSTDYANSVKGRFTISRDNSKNTLYLQMNSLRAEDTAVYYCATGGGIFDYWGQGTLVTVSS VL: EIVLTQSPGTLSLSPGERATLSCQASQTISNYLNWYQQKPGQAPRLLIYDASNRATGIPDRFSGSGSGTDFTLTISRLEPEDFAVYYCQQYNSYPPSFGQGTKVEIK		≤ 0.2 µg/mL	
